{"source": "patent US20180291072", "proteins": {"B1": {"name": "Recombinant MMP-2 (protein)", "chain": "YNFFPRKPKWDKNQITYRIIGYTPDLDPETVDDAFARAFQVWSDVTPLRFSRIHDGEADIMINFGRWEHGDGYPFDGKDGLLAHAFAPGTGVGGDSHFDDDELWTLGEGQVVRVKYGNADGEYCKFPFLFNGKEYNSCTDTGRSDGFLWCSTTYNFEKDGKYGFCPHEALFTMGGNAEGQPCKFPFRFQGTSYDSCTTEGRTDGYRWCGTTEDYDRDKKYGFCPETAMSTVGGNSEGAPCVFPFTFLGNKYESCTSAGRSDGKMWCATTANYDDDRKWGFCPDQGYSLFLVAAHEFGHAMGLEHSQDPGALMAPIYTYTKNFRLSQDDIKGIQELYGASPDIDLGTGPTPTLGPVTPEICKQDIVFDGIAQIRGEIFFFKDRFIWRTVTPRDKPMGPLLVATFWPELPEKIDAVYEAPQEEKAVFFAGNEYWIYSASTLERGYPKPLTSLGLPPDVQRVDAAFNWSKNKKTYIFAGDKFWRYNEVKKKMDPGFPKLIADAWNAIPDNLDAVVDLQGGGHSYFFKGAYYLKLENQSLKSVKFGSIKSDWLGC"}}, "key": {"[1]": {"biological_target": "KLAK-sFt-GFP fusion peptide (pro-apoptotic peptide-ferritin monomer fragment-linker-GFP fusion polypeptide)"}, "[2]": {"biological_target": "type II fusion peptide (pro-apoptotic peptide-linker-ferritin monomer fragment-linker-GFP fusion polypeptide)"}}, "data": [{"protein": "B1", "values": [{"measurement": "linker cleavage, SDS-PAGE of products", "setting": "[1]", "value": "each linker of type I fusion peptide and type II fusion peptide was cleaved, and products generated by the linker cleavage were observed in a concentration-dependent manner"}, {"measurement": "linker cleavage, SDS-PAGE", "setting": "sFt-GFP fusion peptide", "value": "sFt-GFP was more easily cleaved by MMP-2 as compared with wFt-GFP"}, {"measurement": "linker cleavage, SDS-PAGE of products", "setting": "[2]", "value": "each linker of type I fusion peptide and type II fusion peptide was cleaved, and products generated by the linker cleavage were observed in a concentration-dependent manner"}, {"measurement": "linker cleavage, SDS-PAGE", "setting": "wFt-GFP fusion peptide", "value": "sFt-GFP was more easily cleaved by MMP-2 as compared with wFt-GFP"}]}]}
